Measured values as given in patent publication US20190262327A1, “COMBINATION OF A BACE INHIBITOR AND AN ANTIBODY OR ANTIGEN-BINDING FRAGMENT FOR THE TREATMENT OF A DISORDER ASSOCIATED WITH THE ACCUMULATION OF AMYLOID BETA” (ASTRAZENECA AB, priority 2016, published 2019).
Entries after “also recorded” stand apart in the source; their conditions may differ.

Columns and labels:
Amyloid beta plaques = experiment: In vivo binding to Amyloid beta plaques in aged Tg2576 mice (immunohistochemistry); parameters: species or system mouse; conditions: 168 hours after single i.v. dose of 10 or 30 mg/kg
Procedure: Abet0380-GL IgG1-TM was tested for its ability to bind to Amyloid beta plaques in aged Tg2576 mice after a single peripheral dose. Animal experimentations were performed in accordance with relevant guidelines and regulations provided by the Swedish Board of Agriculture. The ethical permission was provided by an ethical board specialized in animal experimentations: the Stockholm Sodra Animal Research Ethical Board. Seventeen-month old female Tg2576 mice (n=5) received a single dose of vehicle, a positive control antibody at 30 mg/kg or the Abet0380-GL IgG1-TM antibody at 10 or 30 mg/kg by intravenous injection with a dosing vehicle of 25 mM Histidine, 7% Sucrose, 0.02% p80 surfactant, pH 6.0 at 5 mL/kg. At 168 hours after dose, animals were deeply anaesthetized and perfused with room temperature PBS followed by cold (4° C.) phosphate buffered 4% paraformaldehyde (PFA). Animals were then sacrificed by decapitation and brains were dissected and immersions fix in PFA at 4° C. for 72 hours. The fixative was exchanged to PBS containing 0.1% sodium azide and tissues were stored at 4° C. until further processed. […]
Scoring of the staining was carried out in a blinded fashion under 10× optical magnification. […] The intensity of plaque labelling was scored according to a relative intensity scale from 0 (no staining of plaques) up to 4 (intense decoration of plaques).

[1] = target: T1, unlabelled murine Amyloid beta 1-42 (Mus musculus, UniProt P12023); experiment: Surface Plasmon Resonance specificity profiling of IgGs (BIAcore2000); type: binding; conditions: peptide 64-1024 nM
T1 construct: unlabelled murine Amyloid beta 1-42 (rPeptide, USA; cat: A1008); purchased rPeptide, USA A1008; host or cells: synthetic peptide
Procedure: (§1) Surface Plasmon Resonance was used to verify the specificity of the affinity-optimized IgGs for the human Amyloid beta 1-42 peptide. Briefly, the BIAcore2000 (GE Healthcare, UK) biosensor instrument was used to assess the kinetic parameters of the interaction between each test IgG and a range of small peptides including synthetically-produced human Amyloid beta 1-42 and human Amyloid beta 1-40. These experiments were performed essentially as described by Karlsson et al. (Karlsson et al., 1991).
(§2) The interaction between each test IgG and each peptide was estimated using assays in which the antibody was non-covalently captured by a protein G surface that was itself amine linked to a proprietary CM5 chip. The interaction between antibody and peptide was observed using a 5 application single cycle approach. The chip surface was regenerated between cycles by paired 40 second injections of 10 mM Glycine pH 2.0 to remove ligand and bound antibody. The test antibody was then reapplied for each peptide injection cycle.
(§3) Blank reference flow-cell data were subtracted from each IgG dataset and a zero-concentration antibody-only buffer blank was double-reference subtracted from the main dataset.

[2] = target: T2, unlabelled murine Amyloid beta 1-40 (Mus musculus, UniProt P12023); experiment: as above; type: binding; conditions: peptide 64-1024 nM
T2 construct: unlabelled murine Amyloid beta 1-40 (rPeptide, USA; cat: A1007); purchased rPeptide, USA A1007; host or cells: synthetic peptide
Procedure: as §1, §2, §3

[3] = target: T3, biotinylated human Amyloid beta 1-40 (Homo sapiens, UniProt P05067); experiment: as above; type: binding; conditions: peptide 64-1024 nM
T3 construct: biotinylated human Amyloid beta 1-40 (rPeptide, USA; cat: A1111); purchased rPeptide, USA A1111; host or cells: synthetic peptide
Procedure: as §1, §2, §3

[4] = target: T4, biotinylated human Amyloid beta 1-42 (Homo sapiens, UniProt P05067); experiment: as above; type: binding; conditions: peptide 64-1024 nM
T4 construct: biotinylated human Amyloid beta 1-42 peptide (rpeptide, USA; cat: A1117); purchased rPeptide, USA A1117; host or cells: synthetic peptide
Procedure: as §1, §2, §3

[5] = test system: Amyloid beta 1-40 peptide; experiment: Total Amyloid beta 1-40 peptide in rat brain homogenates (ELISA); type: in vivo; conditions: Sprague-Dawley rats, 0.25-10 mg/kg weekly over 14 days
Procedure: […] Dosing solutions were made just before dosing. Animals were anaesthetized at the time indicated and cerebrospinal fluid (CSF) was aspirated from the cistema magna. CSF samples were centrifuged for 10 minutes at approximately 3000× g at 4° C. within 20 minutes of sampling to remove cells or debris. Samples were then frozen on dry ice and stored at −70° C. for subsequent analysis.
Animals were sacrificed by decapitation, brain tissue was dissected and Amyloid beta peptides were extracted from brain tissue in diethylamine (DEA; Fluka. Sigma. UK; cat: 31729). Briefly, frozen brain tissue was homogenized in 0.2% DEA and 50 mM NaCl (Merck, USA: cat: 1.06404.1000). Brain homogenates were ultracentrifuged at 133,000×g, for 1 hour. Recovered supernatants were neutralized to pH 8.0 with 2 M Tris-HCl (TRIZMA®-hydrochloride; Sigma, UK; cat: 93363) and stored at −70° C. until analysis. Animal experimentations were performed in accordance with relevant guidelines and regulations provided by the Swedish Board of Agriculture. […]
Measurement of total Amyloid beta 1-40 peptide in rat brain homogenates was performed using the mouse Amyloid beta (1-40) colorimetric ELISA kit (Invitrogen, UK; cat: KMB3481). […] To stop the reaction, 100 μl of Stop Solution was added to each well and the plate was read within 2 hours at an absorbance of 450 nm. […]

[6] = listed as Abet0380-GL (germlined) IgG1-TM

T4 sequence (P05067 672-713): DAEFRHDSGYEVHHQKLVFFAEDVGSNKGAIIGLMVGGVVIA
T2 sequence (P12023 672-711): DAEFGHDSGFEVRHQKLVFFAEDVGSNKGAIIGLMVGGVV
T3 sequence (P05067 672-711): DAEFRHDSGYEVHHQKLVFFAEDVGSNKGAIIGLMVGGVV
T1 sequence (P12023 672-713): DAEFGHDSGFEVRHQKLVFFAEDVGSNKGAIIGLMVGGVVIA

B1: Abet0380-GL IgG1-TM: germlined Abet0380; VH SEQ ID NO: 524, VL SEQ ID NO: 533; human IgG1 triple mutant format (antibody, listed as Homo sapiens, V domains shown)
VH: EVQLLESGGGLVQPGGSLRLSCAASMGNFNYQTMWWVRQAPGKGLEWVSVIGKTNENIAYADSVKGRFTISRDNSKNTLYLQMNSLRAEDTAVYYCAREWMDHSRPYYYYGMDVWGQGTLVTVSS
VL: SYELTQPPSVSVSPGQTASITCSGHNLEDKFASWYQQKPGQSPVLVIYRDDKRPSGIPERFSASNSGHTATLTISGTQAMDEADYYCSSQDTVTRVFGGGTKLTVL
modifications: human IgG1 triple mutant constant region; /note=“Abet0380-GL”
notes: germlined Abet0380; human IgG1 triple mutant format
in vivo decoration of Amyloid beta plaques or CAA (Amyloid beta plaques): did not decorate; also recorded: does not show any in vivo plaque decoration | binding of unlabelled murine Amyloid beta 1-42 peptide to immobilized antibody [1]: clear binding | binding of unlabelled murine Amyloid beta 1-42 peptide to immobilized antibody [1, 6]: strong binding | binding of unlabelled murine Amyloid beta 1-40 peptide to immobilized antibody [2]: no discernable binding | binding of unlabelled murine Amyloid beta 1-40 peptide to immobilized antibody [2, 6]: no binding | binding of biotinylated human Amyloid beta 1-40 peptide to immobilized antibody [3]: no discernable binding | binding of biotinylated human Amyloid beta 1-40 peptide to immobilized antibody [3, 6]: no binding | binding of biotinylated human Amyloid beta 1-42 peptide to immobilized antibody [4]: clear binding | binding of biotinylated human Amyloid beta 1-42 peptide to immobilized antibody [4, 6]: strong binding | effect on total Amyloid beta 1-40 peptide in brain tissue [5]: unaffected
